This note sets out measurements from PMC4270787 (PLoS ONE, 2014).

One may read the IC50 as the concentration that gives 50% inhibition. A lower IC50 goes with higher potency.

Common to all, as to assay: radioligand binding
The target of test [1] is acetylcholine-binding protein from Aplysia californica (A. californica).
In test [2] the target is T1, human neuronal α7 nicotinic acetylcholine receptor (human, UniProt P36544 23-502).
T1 construct: also called human α7 nAChR; α7 nAChR
The conditions noted are these: one partner purified.

Test [3] has as its target T2, acetylcholine-binding protein from L. stagnalis (L. stagnalis, UniProt P58154 20-229).
T2 construct: also called L. stagnalis AChBP
The conditions noted are these: both partners purified.

Test [4] concerns the target T3, T. californica muscle-type nicotinic acetylcholine receptor (T. californica, UniProt P02710 25-461; P02712 25-493; P02714 18-506; P02718 22-522).
T3 construct: also called T. californica nAChR; Torpedo nAChR
The conditions noted are these: one partner purified.

On to “PLA2 vurtoxin from V. ursinii venom (from UniProt F8QN54 17-138) (enzyme)”, for which the half-inhibitory concentration (IC50) in test [1] is > 30 µM.
Take “PLA2 CM-II from N. kaouthia venom (from UniProt P00596 28-146) (enzyme)”: the IC50 in test [1] was > 100 µM.

B1: PLA2 Vur-PL2 from V. ursinii venom (enzyme)
chain: NLYQFGKMIRYKTGKSALLSYSDYGCYCGWGGQGKPKDATDRCCFVHDCCYGRVNGCDPKLTIYSYSFENGDIVCGGDDSCKRAVCECDRVAAICFGENLNTYDKKYKNYPSSQCTETEQC
On to B1, for which the 50% inhibitory concentration (IC50) was 29 ± 2 µM in test [2], > 30 µM in test [3] and > 100 µM in test [4].

B2: PLA2 CM-II from N. kaouthia venom (enzyme)
chain: NLYQFKNMIQCTVPNRSWWDFADYGCYCGRGGSGTPVDDLDRCCQVHDNCYNEAEKISRCWPYFKTYSYECSQGTLTCKGDNDACAAAVCDCDRLAAICFAGAPYNNNNYNIDLKARCQ
For B2, the IC50 in test [2] is 3.2 ± 0.3 µM; in test [3], 1 ± 0.03 µM; in test [4] it was 1.2 ± 0.1 µM.

B3: PLA2 vurtoxin from V. ursinii venom (enzyme)
chain: SLLEFGMMILEETGKNPLTSYSFYGCYCGVGGKGTPKDATDRCCFVHDCCYGNLPDCNPKIDRYKYHRKNGAIVCGKGTSCENRICECDRAAAICFRKNLKTYNHIYKYYPDFLCKKESEKC
B3: the half-inhibitory concentration (IC50) in test [2] is 14 ± 5 µM; in test [3], > 30 µM; in test [4], 0.26 ± 0.02 µM.
